Assay results taken from patent US7223902B1, “Method of producing recombinant Aspergillus niger β-glucosidase and an aroma spreading plant” (Yissum Research Development Company of the Hebrew …, priority 1999, dated 2007).

How the values were obtained:
[1] = target: A. niger β-Glucosidase (BGL1); experiment: Inactivation of A. niger β-glucosidase by 2FGlcF, residual activity with DNPGlc; assay type: biochemical, Aspergillus niger; settings: 30 mM citrate buffer pH=4.8, 50° C., 0.5-6 mM inactivator
Description: Pure A. niger β-Glucosidase enzyme (0.47 mg/ml) was incubated in the presence of various concentrations of 2-deoxy-2-fluoro-β-glucosyl fluoride (2FGlcF, 0.5-6 mM) in 30 mM citrate buffer pH=4.8 at 50° C. Residual enzyme activity was determined at different time intervals by addition of an aliquot (10 μl) of the inactivation mixture, to a solution containing citrate buffer (30 mM, pH=4.8), BSA (8 μg) and 2,4-dinitrophenyl β-D-glucopyranoside (DNPGlc, 0.625 mM, 830 μl). Release of DNP was determined spectrophotometrically by measuring the absorbance at 400 nm one minute after the addition of the substrate.
Enzyme was incubated in the presence of various concentrations of 2FGlcF and residual enzyme activity was monitored at different time intervals.

[2] = system: 2-deoxy-2-fluoroglucosyl-BGL1; experiment: Reactivation of 2FGlcF-inactivated enzyme in the presence of linamarin; assay type: biochemical, Aspergillus niger; settings: linamarin 0-16 mM, pH=4.8, 50° C., 0, 10, 20 and 30 min
Description: Reactivation rates were determined as follows: pure A. niger β-glucosidase (0.34 mg/ml) was preincubated with 2FGlcF (5 mM) for 15 min, after which the excess of the inactivator was diafiltered by 20-kDa nominal molecular mass cutoff centrifugal concentrators (Sartorius Inc., Goettingen, Germany). Samples of the purified, inactivated enzyme were incubated in the presence linamarin (0-16 mM) in citrate buffer (30 mM, pH=4.8) at 50° C. for 0, 10, 20 and 30 minutes, and the activity of each sample was determined using p-nitrophenyl β-D-glucopyranoside (pNPGlc) as a substrate.
Rates of reactivation of 2-deoxy-2-fluoroglucosyl-BGL1 were determined in the presence of different concentrations of linamarin by monitoring activity regain after 0, 10, 20 and 30 min (FIG. 9).

[3] = Quantitative β-glucosidase assay using pNPGlc as a substrate; assay type: biochemical
Description: Quantitative assays were performed using pNPGlc as a substrate according to Shoseyov (7).

[4] = Determination of thermal stability of A. niger β-glucosidase (standard pNPGlc assay); assay type: physicochemical; settings: for % activity: percent of enzyme solution kept at 4° C., pH=5
Description: Determination of Thermal Stability of A. niger β-Glucosidase:
Recombinant enzyme (40 μg/ml) was dissolved in 20 mM citrate phosphate buffer, pH=5. Each tested sample (8 μl) was covered by 15 μl mineral oil. The activity was determined by the standard pNPGlc assay (7).
Thermal stability of the recombinant enzyme was evaluated at different temperatures, presented as percent enzymatic activity relative to an enzyme solution kept at 4° C. Results obtained are summarized in Table 2 and illustrated in FIG. 10.

[5] = SDS-PAGE activity gel staining (MUGlc) of transgenic tobacco plant extracts; assay type: biochemical, Nicotiana tabacum cv. Samson; settings: number of tobacco regenerates with BGL1 activity
Description: Detection of β-glucosidase in polyacrylamide gels was carried out by washing the SDS-polyacrylamide gel with 1:1 isopropanol:PC buffer to remove SDS and renature the enzyme. The gel was washed once in PC buffer and incubated in a thin layer of a solution of 0.5 mM MUGlc. After incubation at 50° C. for one hour, the active protein band was visualized by UV light.
Western blot (40) and SDS-PAGE activity gel staining (37) were employed to screen successful transgenic lines, using the purified A. niger BGL1 protein as positive controls and non-transgenic plant as negative control.

For `OC[C@H]1O[C@@H](F)[C@H](F)[C@@H](O)[C@@H]1O` [2FGlcF, 2-deoxy-2-fluoro β-glucosyl fluoride], the KI (inactivation) [1] was 35.4 mM and the “pseudo-first order rate constant Ki for inactivation” value [1] was 4.5 min⁻¹.

In the case of `CC(C)(C#N)O[C@@H]1O[C@H](CO)[C@@H](O)[C@H](O)[C@H]1O` [linamarin], the “regain of activity of 2-deoxy-2-fluoroglucosyl-BGL1” value [2] is reported as “followed a first order process”.

B1: recombinant BGL1: Recombinant Aspergillus niger B1 β-glucosidase (SEQ ID NO:2) expressed from bgl1 cDNA in P. pastoris, S. cerevisiae or E. coli (protein)
chain: MRFTLIEAVALTAVSLASADELAYSPPYYPSPWANGQGDWAQAYQRAVDIVSQMTLDEKVNLTTGTGWELELCVGQTGGVPRLGVPGMCLQDSPLGVRDSDYNSAFPAGMNVAATWDKNLAYLRGKAMGQEFSDKGADIQLGPAAGPLGRSPDGGRNWEGFSPDPALSGVLFAETIKGIQDAGVVATAKHYIAYEQEHFRQAPEAQGFGFNISESGSANLDDKTMHELYLWPFADAIRAGAGAVMCSYNQINNSYGCQNSYTLNKLLKAELGFQGFVMSDWAAHHAGVSGALAGLDMSMPGDVDYDSGTSYWGTNLTISVLNGTVPQWRVDDMAVRIMAAYYKVGRDRLWTPPNFSSWTRDEYGYKYYYVSEGPYEKVNQYVNVQRNHSELIRRIGADSTVLLKNDGALPLTGKERLVALIGEDAGSNPYGANGCSDRGCDNGTLAMGWGSGTANFPYLVTPEQAISNEVLKHKNGVFTATDNWAIDQIEALAKTASVSLVFVNADSGEGYINVDGNLGDRRNLTLWRNGDNVIKAAASNCNNTIVVIHSVGPVLVNEWYDNPNVTAILWGGLPGQESGNSLADVLYGRVNPGAKSPFTWGKTREAYQDYLVTEPNNGNGAPQEDFVEGVFIDYRGFDKRNETPIYEFGYGLSYTTFNYSNLEVQVLSAPAYEPASGETEAAPTFGEVGNASDYLYPSGLLRITKFIYPWLNGTDLEASSGDASYGQDSSDYLPEGATDGSAQPILPAGGGPGGNPRLYDELIRVSVTIKNTGKVAGDEVPQLYVSLGGPNEPKIVLRQFERITLQPSEETKWSTTLTRRDLANWNVEKQDWEITSYPKMVFVGSSSRKLPLRASLPTVH
modifications: Aspergillus niger
With B1 the β-glucosidase activity ([3]; overexpressed in E. coli, E. coli extracts) was “No apparent β-glucosidase activity could be detected”, the specific activity ([3]; secreted by P. pastoris to the medium, without further purification) was 124 units/mg protein and the “% activity” value ([4]; 4 °C) was 100%. The “% activity” value ([4]; 50 °C) was 91.5%, the “% activity” value ([4]; 55 °C) was 83.5% and the “% activity” value ([4]; 60 °C) was 68%. The “% activity” value ([4]; 65 °C) was 17.8%, the “% activity retained” value ([4]; after 1 hour incubation at 60° C., percent activity of an enzyme kept at 4° C.) was 68% and the activity maintained ([4]; temperature ranging from 4-60° C.) was “above 50%”.

B2: BGL1: BGL1 without a signal peptide expressed in tobacco plants (plasmid pJDB1, SEQ ID NO:14) (protein)
chain: DELAYSPPYYPSPWANGQGDWAQAYQRAVDIVSQMTLDEKVNLTTGTGWELELCVGQTGGVPRLGVPGMCLQDSPLGVRDSDYNSAFPAGMNVAATWDKNLAYLRGKAMGQEFSDKGADIQLGPAAGPLGRSPDGGRNWEGFSPDPALSGVLFAETIKGIQDAGVVATAKHYIAYEQEHFRQAPEAQGFGFNISESGSANLDDKTMHELYLWPFADAIRAGAGAVMCSYNQINNSYGCQNSYTLNKLLKAELGFQGFVMSDWAAHHAGVSGALAGLDMSMPGDVDYDSGTSYWGTNLTISVLNGTVPQWRVDDMAVRIMAAYYKVGRDRLWTPPNFSSWTRDEYGYKYYYVSEGPYEKVNQYVNVQRNHSELIRRIGADSTVLLKNDGALPLTGKERLVALIGEDAGSNPYGANGCSDRGCDNGTLAMGWGSGTANFPYLVTPEQAISNEVLKHKNGVFTATDNWAIDQIEALAKTASVSLVFVNADSGEGYINVDGNLGDRRNLTLWRNGDNVIKAAASNCNNTIVVIHSVGPVLVNEWYDNPNVTAILWGGLPGQESGNSLADVLYGRVNPGAKSPFTWGKTREAYQDYLVTEPNNGNGAPQEDFVEGVFIDYRGFDKRNETPIYEFGYGLSYTTFNYSNLEVQVLSAPAYEPASGETEAAPTFGEVGNASDYLYPSGLLRITKFIYPWLNGTDLEASSGDASYGQDSSDYLPEGATDGSAQPILPAGGGPGGNPRLYDELIRVSVTIKNTGKVAGDEVPQLYVSLGGPNEPKIVLRQFERITLQPSEETKWSTTLTRRDLANWNVEKQDWEITSYPKMVFVGSSSRKLPLRASLPTVH
B2 gave an Activity gel positive [5] of 0.
